Test results taken from the supplement of paper PMC7877785.
± gives the uncertainty stated by the source.

Assay: self-splicing fitness, log relative to wild type (ln ratio); higher = more splicing; Tetrahymena group I intron in knt gene, E. coli kanamycin selection, DiMSum; sequences stand for … in CUCUCU…GGAGGGAAAAGUUAUCAGGCAUGCACCUGGUAGCUAGUCUUUAAACCAAUAGAUUGCAUCGGUUUAAAAGGCAAGACCGUCAAAUUGCGGGAAAGGGGUCAACAGCCGUUCAGUACCAAGUCUCAGGGGAAACUUUGAGAUGGCCUUGCAAAGGGUAUGGUAAUAAGCUGACGGACAUGGUCCUAACCACGCAGCCAAGUCCUAAGUCAACAGAUCUUCUGUUGAUAUGGAUGCAGUUCACAGACUAAAUGUCGGUCGGGGAAGAUGUAUUCUUCUCAUAAGAUAUAGUCGGACCUCUCCUUAAUGGGAGCUAGCGGAUGAAGUGAUGCAACACUGGAGCCGCUGGGAACUAAUUUGUAUGCGAAAGUAUAUUGAUUAGUUUUGGAGUACUCGUGGUCG
Summary of the method: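 Library with all eight P1ex-region intron nucleotides randomised, intron inside the knt kanamycin-resistance gene on pET-22b(+), in E. coli BL21(DE3). Cells grew overnight at 37°C or 30°C on LB agar with or without 25 μg/mL kanamycin (plus 100 μg/mL carbenicillin, 50 μM IPTG, 0.2% rhamnose), in six replicate transformations. Pooled colonies were amplicon-sequenced on Illumina HiSeq 2500. DiMSum fitness is the error-weighted combination of wild-type-normalised replicate fold changes, kanamycin versus none.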

Sequence | self-splicing fitness (ln) (30 °C) | self-splicing fitness (ln) (37 °C)
AGCUAGCAAUAUUACGUGGU | -2.52 ± 0.17 | -2.18 ± 0.24
GGCCAGCAAUAUUACGAUGG | -4.28 ± 0.33 | -2.67 ± 0.33
UGUGAGCAAUAUUACGUAUC | -3.75 ± 0.37 | -2.3 ± 0.32
AAGAAGCAAUAUUACGAGAU | -3.43 ± 0.18 | -1.56 ± 0.14
GAUAAGCAAUAUUACGCUCA | -1 ± 0.07 | 0.0635 ± 0.097
CCCAAGCAAUAUUACGUCCA | -1.96 ± 0.14 | -2.45 ± 0.23
GCAGAGCAAUAUUACGAAAU | -4.35 ± 0.29 | -2.79 ± 0.26
GAGCAGCAAUAUUACGACAU | -1.29 ± 0.013 | -0.608 ± 0.033
AUCGAGCAAUAUUACGCAGG | -3.53 ± 0.28 | -2.77 ± 0.22
GGCUAGCAAUAUUACGGUUU | 0.173 ± 0.078 | 0.305 ± 0.09
CAACAGCAAUAUUACGUAAC | -3.71 ± 0.23 | -2.41 ± 0.24
AAUUAGCAAUAUUACGAAUG | -1.55 ± 0.12 | 0.187 ± 0.14
AACCAGCAAUAUUACGACGC | -0.537 ± 0.082 | -0.0547 ± 0.098
ACAGAGCAAUAUUACGAGGG | -2.31 ± 0.14 | -2.35 ± 0.24
UUCAAGCAAUAUUACGCCCU | -1.34 ± 0.14 | -0.18 ± 0.16
UUACAGCAAUAUUACGGAAA | -1.42 ± 0.14 | -0.561 ± 0.14
ACGCAGCAAUAUUACGACAU | -0.318 ± 0.011 | 0.305 ± 0.032
UCACAGCAAUAUUACGUUAA | -2.66 ± 0.12 | -1.83 ± 0.11
UACAAGCAAUAUUACGGAGC | -3.08 ± 0.21 | -2.78 ± 0.34
UAGGAGCAAUAUUACGCGAC |  | -1.74 ± 0.38
GAAGAGCAAUAUUACGAGCG | -3.17 ± 0.2 | -0.882 ± 0.17
GGCAAGCAAUAUUACGAUCA | -0.849 ± 0.12 | -0.349 ± 0.098
CCCCAGCAAUAUUACGUCGU | -3.19 ± 0.12 | -2.05 ± 0.12
AAAUAGCAAUAUUACGUGGU | -3.87 ± 0.16 | -2.84 ± 0.15

Sequence | self-splicing fitness (ln) (30 °C) | self-splicing fitness (ln) (37 °C)
AACCAGCAAUAUUACGUGCG | -0.832 ± 0.053 | -0.365 ± 0.064
UCCGAGCAAUAUUACGGCCU | -3.24 ± 0.3 | -2.33 ± 0.38
CCAGAGCAAUAUUACGUAGG | -3.25 ± 0.19 | -2.6 ± 0.25
GUCGAGCAAUAUUACGCUUU | -1.81 ± 0.18 | -1.92 ± 0.2
AAGAAGCAAUAUUACGUGGC | -4.15 ± 0.22 | -2.99 ± 0.2
UCUAAGCAAUAUUACGAAAG | -2.88 ± 0.17 | -2.03 ± 0.18
AACAAGCAAUAUUACGGCCA | -0.5 ± 0.077 | -0.412 ± 0.092
UCAGAGCAAUAUUACGCGGC |  | -3.08 ± 0.4
CAUUAGCAAUAUUACGGGGG | -2.52 ± 0.21 | -1.19 ± 0.15
GCCCAGCAAUAUUACGUUGG | -3.22 ± 0.13 | -2.92 ± 0.15
AAAUAGCAAUAUUACGCUCA | -0.111 ± 0.13 | 0.39 ± 0.16
UUCAAGCAAUAUUACGACUG | -2.38 ± 0.15 | -1.33 ± 0.12
CGAGAGCAAUAUUACGCACC | -1.83 ± 0.28 | -2 ± 0.34
CAAAAGCAAUAUUACGUAAC | -3.75 ± 0.18 | -2.62 ± 0.3
CACCAGCAAUAUUACGUUGC | -3.93 ± 0.17 | -3.5 ± 0.24
GUAUAGCAAUAUUACGAGUU | -3.29 ± 0.19 | -1.17 ± 0.14
CAGGAGCAAUAUUACGAACU | -3.14 ± 0.34 | -3.19 ± 0.32
UAUGAGCAAUAUUACGUGGG | -3.55 ± 0.25 | -3.94 ± 0.39
GCUUAGCAAUAUUACGGUUA | -0.517 ± 0.11 | -0.548 ± 0.11
UGGUAGCAAUAUUACGUCUA | -0.44 ± 0.096 | 0.358 ± 0.12
UAGGAGCAAUAUUACGUUUA | -2.18 ± 0.27 | -0.145 ± 0.17
GUUCAGCAAUAUUACGAAGC | -0.705 ± 0.18 | -1.29 ± 0.2
GGUAAGCAAUAUUACGCGGC | -2.84 ± 0.19 | -1.29 ± 0.2
CAAAAGCAAUAUUACGGUCA | -1.83 ± 0.13 | 0.0762 ± 0.1

Sequence | self-splicing fitness (ln) (30 °C) | self-splicing fitness (ln) (37 °C)
CGCCAGCAAUAUUACGUAAC | -3.91 ± 0.24 | -2.96 ± 0.28
CUCGAGCAAUAUUACGUCAC | -3.1 ± 0.3 | -1.11 ± 0.22
UCUGAGCAAUAUUACGAUUU | -2.65 ± 0.22 | -1.31 ± 0.2
CAUAAGCAAUAUUACGCAUU | -3.5 ± 0.18 | -1.35 ± 0.17
CCCAAGCAAUAUUACGCAUU | -3.82 ± 0.2 | -2.04 ± 0.19
GUACAGCAAUAUUACGGCGA | -1.14 ± 0.18 | -1.09 ± 0.14
UUCGAGCAAUAUUACGGAGA | -1.63 ± 0.22 | -1.38 ± 0.22
GCGCAGCAAUAUUACGCGCA | -4.09 ± 0.32 | 0.322 ± 0.13
AUCCAGCAAUAUUACGGGCG | -0.327 ± 0.066 | 0.25 ± 0.089
GUCUAGCAAUAUUACGUGUG | -0.5 ± 0.063 | -0.649 ± 0.079
CGAGAGCAAUAUUACGGACC | -3.73 ± 0.44 | 
GACGAGCAAUAUUACGCGCG | -3.15 ± 0.16 | -2.7 ± 0.25
UCACAGCAAUAUUACGCAAG | -2.65 ± 0.17 | -1.11 ± 0.15
CCUAAGCAAUAUUACGAUUG | -3.51 ± 0.19 | -1.68 ± 0.13
UAAAAGCAAUAUUACGUUCG | -0.052 ± 0.085 | -0.0686 ± 0.11
GCUAAGCAAUAUUACGGUCG | -2.27 ± 0.11 | -1.34 ± 0.14
UCCUAGCAAUAUUACGAACA | -2.9 ± 0.29 | -1.3 ± 0.22
UGGGAGCAAUAUUACGGUUA | -3.22 ± 0.37 | -1.65 ± 0.16
AGCUAGCAAUAUUACGUAAC | -2.01 ± 0.15 | -0.993 ± 0.16
GCUAAGCAAUAUUACGCGGC | -0.424 ± 0.19 | -2.64 ± 0.5
AAUCAGCAAUAUUACGGCUU | 0.103 ± 0.067 | 0.17 ± 0.077
GGACAGCAAUAUUACGCAGC | -1.1 ± 0.083 | -0.558 ± 0.085
GCGAAGCAAUAUUACGAAAA | -3.24 ± 0.43 | 
GAGAAGCAAUAUUACGAUGU | -1.12 ± 0.13 | -0.819 ± 0.21

Sequence | self-splicing fitness (ln) (30 °C) | self-splicing fitness (ln) (37 °C)
UGUCAGCAAUAUUACGGUUU | -1.01 ± 0.061 | -0.547 ± 0.086
UUAAAGCAAUAUUACGAUUA | 0.6 ± 0.089 | 0.448 ± 0.097
GACUAGCAAUAUUACGUUGA | -2.07 ± 0.21 | -1.59 ± 0.15
UGUCAGCAAUAUUACGAGCA | -0.272 ± 0.12 | -0.347 ± 0.13
UUGAAGCAAUAUUACGAGCU | -1.76 ± 0.16 | -1.02 ± 0.19
GGGUAGCAAUAUUACGUUUA | -0.585 ± 0.12 | -0.381 ± 0.1
UGCUAGCAAUAUUACGUCAA | -1.87 ± 0.13 | -1.13 ± 0.12
GUCCAGCAAUAUUACGAAAC | -0.222 ± 0.15 | -0.568 ± 0.2
GGCCAGCAAUAUUACGCACU | -0.947 ± 0.13 | 0.319 ± 0.16
ACUUAGCAAUAUUACGACCG | -0.573 ± 0.18 | -0.217 ± 0.26
UGAAAGCAAUAUUACGACUC | -2.17 ± 0.2 | -1.88 ± 0.25
UCCAAGCAAUAUUACGAUCU | -3.08 ± 0.26 | -2.56 ± 0.22
AACCAGCAAUAUUACGGCCC | 0.0145 ± 0.12 | 0.0337 ± 0.099
UCACAGCAAUAUUACGUACA | -1.53 ± 0.076 | -0.549 ± 0.075
CCGAAGCAAUAUUACGCGAU | -3.78 ± 0.28 | -1.93 ± 0.33
GCUUAGCAAUAUUACGUUUA | -1.73 ± 0.13 | -1.17 ± 0.12
UUGAAGCAAUAUUACGAAUU | -2.73 ± 0.33 | -1.3 ± 0.31
UACCAGCAAUAUUACGUACU | -2.92 ± 0.17 | -1.4 ± 0.15
GAAGAGCAAUAUUACGGGGG | -3.04 ± 0.2 | -3.06 ± 0.29
UGAUAGCAAUAUUACGGGCG | -0.568 ± 0.099 | 0.157 ± 0.1
ACGGAGCAAUAUUACGUUGU | -3.46 ± 0.14 | -2.07 ± 0.13
AGCGAGCAAUAUUACGACAG |  | -2.08 ± 0.4
CCCUAGCAAUAUUACGCACG | -3.98 ± 0.37 | -1.74 ± 0.18
CUAAAGCAAUAUUACGUAUA | -3.23 ± 0.14 | -3.09 ± 0.28
